Test results as given in the supplement of paper PMC12764529.
± gives the half width of the 95% confidence interval.

Experiments:
[1] = folding stability dG unfold from trypsin proteolysis; higher = more stable
Procedure, shortened: (§1)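 Unfolding free energy was derived, per protease or combined, by relating Bayesian-fitted K50 values from sequencing counts to a sequence-predicted unfolded-state K50 and a shared folded-state K50. The underlying digests exposed cysteine-free mini-proteins under 80 residues, in a PA-tagged cDNA display construct, to trypsin and chymotrypsin at 11 threefold-diluted concentrations and to a no-protease condition. A filter kept only designs with AlphaFold2 dimer inter-PAE above 15.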

[2] = folding stability dG unfold (combined trypsin and chymotrypsin); higher = more stable
Procedure, shortened: as §1

[3] = folding stability dG unfold from chymotrypsin proteolysis; higher = more stable
Procedure, shortened: as §1

Sequence	folding stability dG unfold [1]	folding stability dG unfold [2]	folding stability dG unfold [3]
SAGGSAGGSAGSPDRPRRVEPVPVVTYKDPDLGKEFTSPEEIEKTKEELEKKGLSVEVSASAGGSAGGSAGG [r17_289_JUSTAS]	-0.875 ± 0.544 kJ/mol	1.21 ± 0.628 kJ/mol	2.02 ± 0.418 kJ/mol
SAGGSAGGSAGKEYYVVAKVEDPSTGKVTVYVGPFSDFVKTFDPKNSKVEFFLVEKDALKSAGGSAGGSAGG [r11_334_TrMRF]	7.84 ± 0.305 kJ/mol	12.1 ± 0.322 kJ/mol	13.8 ± 0.184 kJ/mol
SAGGSAGGSMKITKSPSGYYTVTINLPNGTTVEIKVSTSDPNATDEQIIEIAKPKAEEILKKSSAGGSAGGS [r12_642_JUSTAS]	4.84 ± 0.226 kJ/mol	10.6 ± 0.586 kJ/mol	12 ± 0.502 kJ/mol
SAGGSAVILIPIPPDDPNFWEMIKDFQEEGKPVIIRNPEGEWMVFKPNGPVKPVDSPEQLLEAGITSAGGSA [r15_94_TrROS]	4.31 ± 0.31 kJ/mol	4.34 ± 0.753 kJ/mol	4.16 ± 0.669 kJ/mol
SAGGSAMTVEELKELFPGYPITEITDFQPVDGWYTLSIKYPNNGKKRQINVEGMPPELAKEIMELISAGGSA [r15_830_TrROS]	0.674 ± 0.151 kJ/mol	0.191 ± 0.41 kJ/mol	-1.65 ± 0.879 kJ/mol
SAGMIATITITRPGTGSITLTVPVPVPSEEEARAYAEAVREALRAADPGPLEVSVEFERVPPVPPERLGSAG [r5_87_JUSTAS]	6.7 ± 0.159 kJ/mol	7.33 ± 0.418 kJ/mol	7.73 ± 0.151 kJ/mol
SYLPESVPYDLVELTVVAKGKSPEYLEKKIKEAFKDVKIEPFYDPEKKLVTFKIVFPNKETAEKFKELVSSA [r9_764_TrMRF]	8.09 ± 0.226 kJ/mol	9.05 ± 0.293 kJ/mol	9.53 ± 0.172 kJ/mol
SAGKKKFITIVIPIEKKEKLKKAVEELKKKFNAKELAVIPNPEKNEIIEVVVKETKDAIIKIVIIAKESAGG [r19_262_TrMRF]	7.02 ± 0.151 kJ/mol	6.06 ± 0.372 kJ/mol	5.25 ± 0.121 kJ/mol
SAGGSAGGSGMMTVELTETIVSETSVVTEKVPEKGEFIVEVLETSVSVVRRTLPLALYQALLESAGGSAGGS [r12_723_JUSTAS]	3.62 ± 0.297 kJ/mol	3.3 ± 0.364 kJ/mol	2.64 ± 0.406 kJ/mol
SAGGSAGGSAGGMTLVIVVETEEQAEALAEELKKKGFEVTVERDEETNLLVVTVKVKPPPSAGGSAGGSAGG [r7_623_TrROS_Hall]	16.9 ± 1.05 kJ/mol	15.3 ± 0.502 kJ/mol	14.1 ± 0.46 kJ/mol
SAGSMEALRALAEELAAEIAAAARAAGREVEVDITEVRPGEVRIRVTTTPPGGERTVEDIEIALPEERLSAG [r5_994_JUSTAS]	3.91 ± 0.0753 kJ/mol	6.19 ± 0.142 kJ/mol	7.63 ± 0.109 kJ/mol
SAGGSAMLTLLYRVPPGDPLAHAREIAEALEERFGAKVRILDVKVERDPVTREVYIPVVVELELPESAGGSA [r15_70_TrMRF]	3.58 ± 0.31 kJ/mol	4.75 ± 0.711 kJ/mol	5.42 ± 0.669 kJ/mol
SAGGSGMEKYTVTIDLKFYTPETGKTYTKTVTLTTTSIEEAIKAITEKLTPPDMKIEITSITVTPSSAGGSA [r2_320_JUSTAS]	18.1 ± 1.05 kJ/mol	19.3 ± 0.544 kJ/mol	19.3 ± 0.46 kJ/mol
SAGGSAGGSGSTVVEVEFPDARIVITVEPPGVLTVTVERPPFPVETVRLPDMTVEEAVAYALASAGGSAGGS [r20_8_JUSTAS]	7.38 ± 0.222 kJ/mol	6.21 ± 0.31 kJ/mol	4.75 ± 0.41 kJ/mol
SNIKNIKRVEIYYNPENGWMPKIKVEYPGGEREFMFPPDQAEELLNWLQQKGLPMKITDVEYHPMPPDQMSA [r9_607_TrROS]	3.81 ± 0.36 kJ/mol	5.3 ± 0.753 kJ/mol	6.22 ± 0.201 kJ/mol
SKKPDQPPKTVPIEIWVPLPPGQTPEWREMAEEFAEIFADELQQEGFKNVTVEVEPNKDGWVHIDAEVQVSA [r9_865_TrROS]	3.44 ± 0.628 kJ/mol	1.35 ± 1.09 kJ/mol	-1.18 ± 0.879 kJ/mol
SPKIHIFIKGSIEEAVDFIRKFFPGLPIHVFDDPEQAEERAKNGDIVIAIGDEEYANRYAKKYNVPVIYISA [r9_380_TrROS]	10.6 ± 0.259 kJ/mol	13.1 ± 0.222 kJ/mol	13.97 ± 0.0753 kJ/mol
SAGGSAGGSAGRRLVLEFDDESLAVPAAEFLERVLGLELVSIERVPDGERERVLVVLDFPSAGGSAGGSAGG [r11_232_TrMRF]	7.46 ± 0.151 kJ/mol	9.24 ± 0.377 kJ/mol	10.2 ± 0.209 kJ/mol
SAGEKKEKEKEKKKEEEEKKKKEEEKKKEEEKKKEKTLKLEFTLPDGSKIEIEMTVEELKKLGLSPEELSAG [r5_12_TrROS_Hall]	3.5 ± 0.586 kJ/mol	4.31 ± 1.76 kJ/mol	5.4 ± 0.502 kJ/mol
SAGGSAGGSAGGLPPGAKVKVEIEISYDDPFSGPTNEYNSFPVELNFEPPEPIPTDPRLNSAGGSAGGSAGG [r7_522_TrMRF]	-2.86 ± 0.669 kJ/mol	< -4.18 kJ/mol	-5.75 ± 2.3 kJ/mol
SAGPPEQKIKIKWYPPDDGQPQEIPGPVDDIKDILDKLGWPVTNIETDPDDNEVEIWVPFPNWWLHIKISAG [r5_521_TrROS]	3.7 ± 0.151 kJ/mol	6.39 ± 0.502 kJ/mol	7.49 ± 0.289 kJ/mol
